Assay results reported in paper PMC4355418.

Tests used:
Assay in all cases: peptide binding assay on Ni2+ coated plate (absorbance at 405 nm)
[1] = biological target: T1, JMD1 peptide of the ACR4 juxtamembrane domain; details: chain shown with the change; protein immobilized on a Ni2+ coated plate; triplicate; SUMO control absorbance subtracted; parent: est. 0.14; read off a plot
T1 chain: DTRSSKDSAFTKDNG

[2] = biological target: T2, CRK1 hC peptide (helix-C region of the CRK1 kinase domain); details: chain shown with the change; protein immobilized on a Ni2+ coated plate; triplicate; SUMO control absorbance subtracted; parent: est. 0.39; read off a plot
T2 chain: HRRADKDSAFVNELES

[3] = biological target: T3, pJMD1 peptide (JMD1 with phosphorylated Ser475); details: chain shown with the change; protein immobilized on a Ni2+ coated plate; triplicate; SUMO control absorbance subtracted; parent: est. 0.29; read off a plot
T3 chain: DTRSSKDSAFTKDNG

response [1]: 0.042 A405 | response [2]: 0.3 A405 | response [3]: 0.17 A405
B1: SUMO-tagged ACR4 KC (sACR4 KC), ACR4 intracellular domain lacking the JMD, Q9LX29 LLSLL motif replaced with AAAAA (residue numbers not printed) (protein)
chain: FKEESIVGKGSFSCVYKGVLRDGTTVAVKRAIMSSDKQKNSNEFRTELDLLSRLNHAHAAAAAGYCEECGERLLVYEFMAHGSLHNHLHGKNKALKEQLDWVKRVTIAVQAARGIEYLHGYACPPVIHRDIKSSNILIDEEHNARVADFGLSLLGPVDSGSPLAELPAGTLGYLDPEYYRLHYLTTKSDVYSFGVLLLEILSGRKAIDMHYEEGNIVEWAVPLIKAGDINALLDPVLKHPSEIEALKRIVSVACKCVRMRGKDRPSMDKVTTALERALAQLMGNPSSEQPILPTEVVLGSSRMHKKSWRIGSKRSGSENTEFRGGSWITFPSVTSSQRRKSSASEGDVAEEEDEGRKQQEALRSLEEEIGPASPGQSLFLHHNF
